Among the data in PMC10786891, “Massively parallel profiling of RNA-targeting CRISPR-Cas13d” are Kd values, retold here.

To fix the notation:
B1: target 1 MT 5'PFS GUG 3'PFS ACG (mixed)
RNA 1: CACCCGUGCAAAAAUGCAGGGGUCUAAAACUGAGCGGAUAACCUCUCUAUGG
RNA 2: GGGAAUGGAUCCACAUCUACGAAUUCGUGCCAUAGAGAGGUUAUCCGCUCAACGAGAUCGGAAGAGCACACGU
B2: target 1 MT 5'PFS GGC 3'PFS CGC (mixed)
RNA 1: CACCCGUGCAAAAAUGCAGGGGUCUAAAACUGAGCGGAUAACCUCUCUAUGG
RNA 2: GGGAAUGGAUCCACAUCUACGAAUUCGGCCCAUAGAGAGGUUAUCCGCUCACGCAGAUCGGAAGAGCACACGU
B3: target 1 insC 3' of 20,insC 3' of 20 (mixed)
RNA 1: CACCCGUGCAAAAAUGCAGGGGUCUAAAACUGAGCGGAUAACCUCUCUAUGG
RNA 2: GGGAAUGGAUCCACAUCUACGAAUUCGUACCACCUAGAGAGGUUAUCCGCUCACCGAGAUCGGAAGAGCACACGU
B4: target 1 MT 5'PFS GCA 3'PFS ACG (mixed)
RNA 1: CACCCGUGCAAAAAUGCAGGGGUCUAAAACUGAGCGGAUAACCUCUCUAUGG
RNA 2: GGGAAUGGAUCCACAUCUACGAAUUCGCACCAUAGAGAGGUUAUCCGCUCAACGAGAUCGGAAGAGCACACGU
B5: target 1 MT 5'PFS GGC 3'PFS CGA (mixed)
RNA 1: CACCCGUGCAAAAAUGCAGGGGUCUAAAACUGAGCGGAUAACCUCUCUAUGG
RNA 2: GGGAAUGGAUCCACAUCUACGAAUUCGGCCCAUAGAGAGGUUAUCCGCUCACGAAGAUCGGAAGAGCACACGU
B6: target 1 MT 5'PFS CAA 3'PFS UAG (mixed)
RNA 1: CACCCGUGCAAAAAUGCAGGGGUCUAAAACUGAGCGGAUAACCUCUCUAUGG
RNA 2: GGGAAUGGAUCCACAUCUACGAAUUCCAACCAUAGAGAGGUUAUCCGCUCAUAGAGAUCGGAAGAGCACACGU
B7: target 1 MT 5'PFS GCU 3'PFS CUC (mixed)
RNA 1: CACCCGUGCAAAAAUGCAGGGGUCUAAAACUGAGCGGAUAACCUCUCUAUGG
RNA 2: GGGAAUGGAUCCACAUCUACGAAUUCGCUCCAUAGAGAGGUUAUCCGCUCACUCAGAUCGGAAGAGCACACGU
B8: target 1 MT 5'PFS GCU 3'PFS CUU (mixed)
RNA 1: CACCCGUGCAAAAAUGCAGGGGUCUAAAACUGAGCGGAUAACCUCUCUAUGG
RNA 2: GGGAAUGGAUCCACAUCUACGAAUUCGCUCCAUAGAGAGGUUAUCCGCUCACUUAGAUCGGAAGAGCACACGU
B9: target 1 MT 5'PFS UGG 3'PFS ACG (mixed)
RNA 1: CACCCGUGCAAAAAUGCAGGGGUCUAAAACUGAGCGGAUAACCUCUCUAUGG
RNA 2: GGGAAUGGAUCCACAUCUACGAAUUCUGGCCAUAGAGAGGUUAUCCGCUCAACGAGAUCGGAAGAGCACACGU
B10: target 1 MT 5'PFS CAA 3'PFS UAU (mixed)
RNA 1: CACCCGUGCAAAAAUGCAGGGGUCUAAAACUGAGCGGAUAACCUCUCUAUGG
RNA 2: GGGAAUGGAUCCACAUCUACGAAUUCCAACCAUAGAGAGGUUAUCCGCUCAUAUAGAUCGGAAGAGCACACGU
B11: target 1 MT 5'PFS GCU 3'PFS CUG (mixed)
RNA 1: CACCCGUGCAAAAAUGCAGGGGUCUAAAACUGAGCGGAUAACCUCUCUAUGG
RNA 2: GGGAAUGGAUCCACAUCUACGAAUUCGCUCCAUAGAGAGGUUAUCCGCUCACUGAGAUCGGAAGAGCACACGU
B12: target 1 MT 5'PFS UAG 3'PFS AUU (mixed)
RNA 1: CACCCGUGCAAAAAUGCAGGGGUCUAAAACUGAGCGGAUAACCUCUCUAUGG
RNA 2: GGGAAUGGAUCCACAUCUACGAAUUCUAGCCAUAGAGAGGUUAUCCGCUCAAUUAGAUCGGAAGAGCACACGU
B13: target 1 MT 5'PFS CAA 3'PFS UAA (mixed)
RNA 1: CACCCGUGCAAAAAUGCAGGGGUCUAAAACUGAGCGGAUAACCUCUCUAUGG
RNA 2: GGGAAUGGAUCCACAUCUACGAAUUCCAACCAUAGAGAGGUUAUCCGCUCAUAAAGAUCGGAAGAGCACACGU
B14: target 1 MT 5'PFS GUA 3'PFS GAU (mixed)
RNA 1: CACCCGUGCAAAAAUGCAGGGGUCUAAAACUGAGCGGAUAACCUCUCUAUGG
RNA 2: GGGAAUGGAUCCACAUCUACGAAUUCGUACCAUAGAGAGGUUAUCCGCUCAGAUAGAUCGGAAGAGCACACGU
B15: target 1 MT 5'PFS GCA 3'PFS CCG (mixed)
RNA 1: CACCCGUGCAAAAAUGCAGGGGUCUAAAACUGAGCGGAUAACCUCUCUAUGG
RNA 2: GGGAAUGGAUCCACAUCUACGAAUUCGCACCAUAGAGAGGUUAUCCGCUCACCGAGAUCGGAAGAGCACACGU
B16: target 1 MT 5'PFS CAA 3'PFS UAC (mixed)
RNA 1: CACCCGUGCAAAAAUGCAGGGGUCUAAAACUGAGCGGAUAACCUCUCUAUGG
RNA 2: GGGAAUGGAUCCACAUCUACGAAUUCCAACCAUAGAGAGGUUAUCCGCUCAUACAGAUCGGAAGAGCACACGU
B17: target 1 MT 5'PFS GCA 3'PFS ACU (mixed)
RNA 1: CACCCGUGCAAAAAUGCAGGGGUCUAAAACUGAGCGGAUAACCUCUCUAUGG
RNA 2: GGGAAUGGAUCCACAUCUACGAAUUCGCACCAUAGAGAGGUUAUCCGCUCAACUAGAUCGGAAGAGCACACGU
B18: target 1 MT 5'PFS UGG 3'PFS ACU (mixed)
RNA 1: CACCCGUGCAAAAAUGCAGGGGUCUAAAACUGAGCGGAUAACCUCUCUAUGG
RNA 2: GGGAAUGGAUCCACAUCUACGAAUUCUGGCCAUAGAGAGGUUAUCCGCUCAACUAGAUCGGAAGAGCACACGU
B19: target 1 MT 5'PFS GCU 3'PFS CUA (mixed)
RNA 1: CACCCGUGCAAAAAUGCAGGGGUCUAAAACUGAGCGGAUAACCUCUCUAUGG
RNA 2: GGGAAUGGAUCCACAUCUACGAAUUCGCUCCAUAGAGAGGUUAUCCGCUCACUAAGAUCGGAAGAGCACACGU
B20: target 1 MT 5'PFS CAG 3'PFS AAG (mixed)
RNA 1: CACCCGUGCAAAAAUGCAGGGGUCUAAAACUGAGCGGAUAACCUCUCUAUGG
RNA 2: GGGAAUGGAUCCACAUCUACGAAUUCCAGCCAUAGAGAGGUUAUCCGCUCAAAGAGAUCGGAAGAGCACACGU
B21: target 1 MT 5'PFS GGC 3'PFS AGA (mixed)
RNA 1: CACCCGUGCAAAAAUGCAGGGGUCUAAAACUGAGCGGAUAACCUCUCUAUGG
RNA 2: GGGAAUGGAUCCACAUCUACGAAUUCGGCCCAUAGAGAGGUUAUCCGCUCAAGAAGAUCGGAAGAGCACACGU
B22: target 1 MT 5'PFS AGU 3'PFS CCG (mixed)
RNA 1: CACCCGUGCAAAAAUGCAGGGGUCUAAAACUGAGCGGAUAACCUCUCUAUGG
RNA 2: GGGAAUGGAUCCACAUCUACGAAUUCAGUCCAUAGAGAGGUUAUCCGCUCACCGAGAUCGGAAGAGCACACGU
B23: target 1 U10G,A16U (mixed)
RNA 1: CACCCGUGCAAAAAUGCAGGGGUCUAAAACUGAGCGGAUAACCUCUCUAUGG
RNA 2: GGGAAUGGAUCCACAUCUACGAAUUCGUACCAUAGUGAGGUGAUCCGCUCACCGAGAUCGGAAGAGCACACGU
B24: target 1 MT 5'PFS AGC 3'PFS AUA (mixed)
RNA 1: CACCCGUGCAAAAAUGCAGGGGUCUAAAACUGAGCGGAUAACCUCUCUAUGG
RNA 2: GGGAAUGGAUCCACAUCUACGAAUUCAGCCCAUAGAGAGGUUAUCCGCUCAAUAAGAUCGGAAGAGCACACGU
B25: target 1 MT 5'PFS GUA 3'PFS GAA (mixed)
RNA 1: CACCCGUGCAAAAAUGCAGGGGUCUAAAACUGAGCGGAUAACCUCUCUAUGG
RNA 2: GGGAAUGGAUCCACAUCUACGAAUUCGUACCAUAGAGAGGUUAUCCGCUCAGAAAGAUCGGAAGAGCACACGU
B26: target 1 MT 5'PFS UUU 3'PFS CGU (mixed)
RNA 1: CACCCGUGCAAAAAUGCAGGGGUCUAAAACUGAGCGGAUAACCUCUCUAUGG
RNA 2: GGGAAUGGAUCCACAUCUACGAAUUCUUUCCAUAGAGAGGUUAUCCGCUCACGUAGAUCGGAAGAGCACACGU
B27: target 1 MT 5'PFS GUA 3'PFS GAG (mixed)
RNA 1: CACCCGUGCAAAAAUGCAGGGGUCUAAAACUGAGCGGAUAACCUCUCUAUGG
RNA 2: GGGAAUGGAUCCACAUCUACGAAUUCGUACCAUAGAGAGGUUAUCCGCUCAGAGAGAUCGGAAGAGCACACGU

The target of this data set is T1, EsCas13d, nuclease-dead (Eubacterium siraeum, UniProt B0MS50, R295A;H300A;R849A;H854A).
T1 sequence: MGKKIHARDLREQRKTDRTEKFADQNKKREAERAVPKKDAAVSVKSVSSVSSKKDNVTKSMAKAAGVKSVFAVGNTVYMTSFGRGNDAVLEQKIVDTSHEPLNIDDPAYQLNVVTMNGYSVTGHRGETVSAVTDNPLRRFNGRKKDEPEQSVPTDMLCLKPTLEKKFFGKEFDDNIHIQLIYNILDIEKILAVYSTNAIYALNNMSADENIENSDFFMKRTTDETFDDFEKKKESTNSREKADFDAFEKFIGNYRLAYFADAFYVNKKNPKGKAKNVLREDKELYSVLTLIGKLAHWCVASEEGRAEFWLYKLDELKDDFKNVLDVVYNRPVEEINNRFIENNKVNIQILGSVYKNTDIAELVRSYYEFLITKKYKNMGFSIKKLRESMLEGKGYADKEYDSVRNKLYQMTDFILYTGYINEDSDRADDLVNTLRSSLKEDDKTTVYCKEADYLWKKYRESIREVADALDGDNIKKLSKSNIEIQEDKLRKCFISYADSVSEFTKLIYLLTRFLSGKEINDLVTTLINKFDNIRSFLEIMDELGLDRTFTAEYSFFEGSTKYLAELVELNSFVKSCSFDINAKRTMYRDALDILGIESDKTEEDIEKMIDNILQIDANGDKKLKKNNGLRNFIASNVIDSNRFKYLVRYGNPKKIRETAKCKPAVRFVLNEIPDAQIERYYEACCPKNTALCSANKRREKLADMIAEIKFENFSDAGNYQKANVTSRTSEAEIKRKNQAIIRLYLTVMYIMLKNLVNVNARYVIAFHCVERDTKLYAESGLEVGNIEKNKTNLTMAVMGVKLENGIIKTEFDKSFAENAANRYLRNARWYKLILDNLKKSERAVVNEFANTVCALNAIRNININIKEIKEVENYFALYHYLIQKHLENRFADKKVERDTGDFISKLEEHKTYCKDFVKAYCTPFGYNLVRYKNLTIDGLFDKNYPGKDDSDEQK
Description: crRNA (strand 1, pre-loaded); Mg2+; 40 mM Tris-HCl pH 7.5, 150 mM NaCl, 6 mM MgCl2, 1 mM DTT, 0.1% Tween-20, 0.2 mg/ml BSA; 25 C; 10 min per concentration, then washed. Conditions: tags: His6-TwinStrep-SUMO cleaved; N-terminal SNAP kept (SNAP-Surface 488); label: 3' end held by stalled T7 RNA polymerase.
Consider B1, for which the Kd (usually a measure of binding affinity in units of concentration) stood at 15.4 ± 1 nM.

Molecule B2 came in with a Kd of 15.5 ± 4 nM.

B3 gave a Kd of 44.7 ± 3.1 nM. Compared with the last molecule, the Kd is about 2.9-fold higher.

The molecule B4 returned a Kd of 19 ± 5.5 nM.

Regarding B5, binding was characterised by a dissociation constant (Kd) of 22 ± 7 nM.

For the molecule B6, the Kd worked out at 17 ± 6.5 nM.

Molecule B7 returned a Kd of 44 ± 14 nM.

In turn, B8 gave a Kd of 26 ± 8 nM.

B9 returned a Kd of 54 ± 17.5 nM.

Regarding B10, the Kd was determined as 34.5 ± 15 nM.

In the case of B11, the Kd was 92 ± 34 nM. This Kd is about 2.7-fold higher than that of the molecule before.

With B12, the dissociation constant (Kd) is 31.6 ± 4.7 nM.

B13 came in with a Kd of 18 ± 9 nM.

In turn, B14 returned a dissociation constant (Kd) of 12.5 ± 1.35 nM.

On to B15, for which binding was characterised by a dissociation constant (Kd) of 18.5 ± 8 nM.

Take B16: binding was put at a Kd of 7.65 ± 2.65 nM.

B17 yielded a Kd of 18.5 ± 4.5 nM.

For B18, the Kd was around 120 nM.

In turn, B19 gave a Kd of 53 ± 22 nM.

In the case of B20, the dissociation constant Kd was 28.5 ± 8 nM.

With B21, the affinity, expressed as Kd, was 22.5 ± 5 nM.

The molecule B22 gave a Kd of 24.6 ± 7.6 nM.

In the case of B23, the Kd is 58 ± 10 nM.

B24 returned an equilibrium dissociation constant (Kd) of 56.5 ± 18.5 nM.

In turn, B25 came in with a Kd of 11.8 ± 1.3 nM. Against the preceding molecule, the Kd is about 4.8-fold lower.

With B26, the Kd is around 65 nM.

On to B27, for which the Kd is 16.1 ± 2.3 nM.
